Assay: soluble on expression in E. coli; label from the status in PepcDB or PDB records
For “PQEEVVRLHASSGTTGKPTVVGYTQNDIDTWANVVARSIRAAGGRKGDKVHVSYGYGLFTGGLGAHYGAERLGCTVIPMSGGQTEKQVQLIRDFHPDIIMVTPSYMLNLADEIERQGIDPHDLKLRLGIFGAEPWTDELRRSIEQRMGINALDIYGLSEIMGPGVAMECIETKDGPTI”, the “soluble on expression in E. coli” value was “not soluble”. For “MFIKIFLITYRYKLTVISIIGGGTIGSSIAIPLKRSGFEVIVTRRNTAVLKHLESYGISVMSDNKTASKEADVVFLTLKPVDIIPEVRKIEENIRGKLLISMAAAIPLKLIKDAAPHSIVVRAMTNIAAKVGAGFTPFCVDDGDQEVAKRASSILSALGEVYLVEEKYMDALTALSGSGPAYILTIIEAMMYGGLKLGLPRDLALKASYQTVMGSAKLLAESGEHPSELKEKVITPGGTTIDGIYELEDARVRTAIMKAIEVSTMKANKISESIKKLEQLEHHHHHH”, the “soluble on expression in E. coli” value was “not soluble”. For “GPGSMEAGGDDLFVINDVEADQMEEVRDARPVEQAQETEADVMESVKGLVPLCVQHAQGPQLSSATFGYDIALMAKRPWAEPGAKLSDYFNYGFNEQSWRVYCAMQEKGEESLLANATAVLQKLELAARPG”, the “soluble on expression in E. coli” value was “soluble”. With “MDLLSLKTVTTLSDCVTIAEQDQVKIVRVIHDKASAAISLHGGHVLSFQPKGQADLLWMSSQAIYDGKAALRGGIPVCWPWFGRIAAPAHGFARNQEWKLIEHREIEQGVIVTLGLQATPESLAIWPYQFDVRLHVEIRESLTVTLDVTNTDSKAWTFSGALHTYLHVGDIRETQTSGVGTEYIDSLQNSRLCTQHGLLTLTDTIDRVYTQPEPLITVQDPALARTLTVENQGHNSAVLWNPWQQGAQSMADMNDEGYLHFLCVESTLHAPSLAEGITLQPGQNHQLVTQITSQAQ” the “soluble on expression in E. coli” value was “not soluble”. For “MAHHHHHHMAVAYVFDGAVLKQMSLEAGHPKFTVLDTPLCSDSAVTCFGKDEFYFINGSVPNVLRHFGGRSGCTEHFLPGPAHCLLVHRQKVYCCGVDCLYVFDPLGEEVETIELGQQIKELTAADHGFVFVNDRHELYAFHFTRGVKIVGTKGPVSKLLGHHNRYAVVLLDNGDVISVNEEAEVRENLFPLKIKERFVALDTGMTLALREDELALHMNGTWLCLDGFKGRELQFLGVPLTPAEDACTICFCDFEDGDGVRLDCGHPFHRDCLAEFSTHAKSFVEKGEHIVFTYAVCPSGCGTHIRHAAAPLSAYMNDLYRAVTKDAEGRLREMENKTLEDLYYYVCCRCEKPYYGGNRWCSRTISGEPCKKPSELICSDCNDDFLCPSHNHDFVLYKCRYCCNPATHLSFGNRYMCDACNKKWEGTEPEPMECPGAEKCPLGGAHPTGGSQPLGCMLCTLFDKCDAKHFFPPQ”, the “soluble on expression in E. coli” value was “not soluble”. With “GPGSMLRHAARCFSPRQCYVSPRVMEAEYAVRGLIPARADEIKADLATGHGTYSFESLVYCNIGNPQSVGQMPLTFYRQVMVLVDAPFLLEDAEIVARLPEDAVARARRYLSEIGTGTGAYTESFGFRFARAAVAAHINELDHGVSPAATVNDICLTDGASMGAKLFLQLLVGGASDAVMIPVPQYPLYSAQIALLGGVKVPYGLHESEGWVMKLSDLVAAYERCVTESGATPRLFVCINPGNPTGNVLERCVMEDVVRFCHERGMLLLADEVYQENVYDTRRRFLSFREVVLGMPEPYCSETMLVSLHSTSKGVIGECGRRGGYFCMTNLPAALRQQVVKLCSINLCANVNGQLMTALMCSPPREGEASYALHRREYDEIFTGMKERAELLARELGAVRGLSCQPVEGAMYAFPRIVLPERYAQRNEELNAKEGRQLALDARWALELLESSGIVVVPGSGFGQEPGTLHFRITILPPLEQIDRMVRAIREFQDRIYEQYA” the “soluble on expression in E. coli” value was “soluble”. For “GREPADMVLKGGRFFDLVTGELVASDIAICGDTVVGTCGDYKGRHEIDISGKIVVPGFIDTHLHIESSLVTPHEFDRCVLPYGVTTAICDPHEIANVLGAEGLQFFLDSAMETIMDIRVQLSSCVPATHLETSGADLPIEKLLPFRNHPKVIGLAEFMNFPGVIHKDPVCMAKLEAFQGQHIDGHAPLLSGAALNGYLAAGIRTEHECTSAAEALEKIRKGMHILVREGSVSKDLHALMPIITERLSPYLALCTDDRNPLDIAEQGHLDYMIRTAIASGVEPLAIYRAASISAAKAFGLRDRGLVAPGWRADLVVIDTLQNCKASMVLSGGRLVDDALFATRKPVAPVGLDSVKARPVLASHFGVPVTEGETPVMGVLPGKIITEHRRYKLPTDGNQTTVDLENDIIKVAVIERHGKNGNHANGFVQGFGLKKGAIASTVGHDSHNICVVGVSEDDMALAANRLGDIKGGFVVVEDGRVTGEIALPVAGLMSLEPYETVRDTLHTLRKAAYALGTTLEEPFLQVAFLPLPVIPHLKISDMGMVDVDRFA”, the “soluble on expression in E. coli” value was “not soluble”. For “MGSDKIHHHHHHMRIAQIAPLHEAVPPKLYGGTERVVSYLTEALVEMGHDVTLFASGDSQTSAKLEAVWPQALRLDPTIRDVMAPHMLLLEEVRRRADEFDVLHFHIDYYPFPLFSRQPVPHLTTLHGRLDLPELQPIFNTFSDVPVVSISDNQRIPLSQANWLQTTYHGLPENLLKPIPDVKPSYLAFLGRISPEKRVDTAIRIAEQAGMPIKIAAKLDKADRAYYEEKIKPLFSLPHVEYIGEISEAEKAEFLGNAHALLFPIDWPEPFGLVMIEAMACGTPVIAFKRGSVPEVIENGVSGFVVEDELSAVAAVKRLNTLPRERVRAAFDARFTSKVMARNYVKGYEELLRQKRRTVLREVNAG”, the “soluble on expression in E. coli” value was “not soluble”. For “MANKLTILASVVAASTAMMATSAQAADTTLDKVTKQGFLTCGVSTGLPGFSNPNSKGEWEGIDVEYCQALAAAVLGDKTKVKYVPLTAKERFTALQSGEIDVLSRNTTWTLHRDTALGLNFVGVNYYDGQGFMVKKDLGISSAKELDGASVCVQSGTTTELNLADYFRNSGMSYKPVVFDTAAQTSKGFDAGRCDVLTTDQSGLYALRLNLKDPSSAAVLPEIISKEPLGPVVRQGDDQWFNIAKWTLAAMVNAEEYGITSKNADEMLKSQDPNIKRILGVDGPKGKGLGIRDDWGYQVVKQVGNYGESFERTVGKGSPLEIARGVNALWNAGGFMYAPPIR”, the “soluble on expression in E. coli” value was “not soluble”. With “MMTQVTESAVRSALSRVEDPEIGKPITELGMVKSVSIDGSDVQVEVYLTIAACPMKTTIVTNTEAALKDIDGVGQVHVTTDVMSDEQRRALRVSLRGETSEPVIPFAQPGSTTRVYAVASGKGGVGKSSMTVNLAAALAKRGLSVGILDADIYGHSVPGMLGSDQRPHQVDDMIMPPQAHGVKMISIAHFTEGNAPVVWRGPMLHRAIQQFLTDVFWGDLDILLLDLPPGTGDIAITVAQLIPNAELLIVTTPQAAAAEVAERAGTISVQTNQKVAGVIENMSAMVLPDGTTMDVFGTGGGQKIADRLTAVTGEEVKVIGSVPLDPNLRIGGDVGNPIAISEPHSPTAAAINEIAEHLAHRKVSLVGKTLGLGVKLEHHHHHH” the “soluble on expression in E. coli” value was “soluble”. With “AIAPSDLAKKKAAKKKEAAKARGRTRKPEDGVNGDAEKPEIQENGAAEVNGVDSLAKELDEFELKKTEARAVTGVLASHPNSTDVHISSLSLTFHGQELLSDTSLELNSGRRYGLIGLNGTGKSMLLSAISHREVPIPEHIDIYHLTREMAPSEKTALQCVMEVDEERIKLEKEAERLAHEDSECEKLMELYERLEELDADKASMRASRILHGLGFTTSMQQKKLKDFSGGWRMRVALARALFLKPFMLLLDEPTNHLDLDACVWLEEELSQFKRILVLISHSQDFLNGVCTNIIHLHQRKLKYYTGNYDQYVKTREELEENQMKRFNWEQDQIAHMKNYIARFGHGSAKLARQAQSKEKTLQKMVASGLTERVVNDKTLSFYFPPCGKIPPPVIMVQNVSFRYSENTPYIYKNLEFGIDLDTRVALVGPNGAGKSTLLKLLTGELLPSDGMIRKHSHVKIGRYHQHLTEQLELDLSPLEYMMKCYPEIKEKEEMKKIIGRYGLTGKQQVSPIRNLSDGQKCRVCFAWLAWQNPHMLFLDEPTNHLDIETIDALAEAINDFEGGMMLVSHDFRLIQQVAQEIWVCEKQTITKWSRDILAYKEHLKSKIDKQMHDL” the “soluble on expression in E. coli” value was “soluble”. For “MAETPNQRITEINLNKEMRTSFLDYAMSVIVARALPDVRDGLKPVHRRILYAMNDLGMTSDKAYKKSARIVGEVIGKYHPHGDTAVYFTMVRMAQDFSYRNMLVDGHGNFGSVDGDMAAAMRYTEARMSKISMELLRDINKDTIDYADNYDGSEREPVILPARFPNLLVNGSSGIAVGMATNIPTHHLGEVIDGVLALSHDPEITIRDLMEYIPGPDFPTAGMIMGRSGIRRAYESGRGSITVRGRVDIEEKKNGKETIVITEIPYQVNKARLVERIAELAREKKIDGITSLNDESDRSGMRIVIEVRRDISASVIVNNLFKMTALQTTFGINMLALVDNHPKVLNLKEILYYYLEHQKVVIRRRTEFELRKAEARAHILEGLRIALDNIDAIIKLIRGSKTSDVAKEGLMTQFNLSDKQAQAILDMRLQRLTGLEREKIEEEYQNLVALINDLKAILADDERILEIIREELEEIKVKYADKRRTEILAGDLVSLEDEDLIPEEEVAITLTKRGYIKRLPLSTYRSQRRGGRGIQGMSTHEDDFVEHLVATSTHDTLLFFTNTGKVYRSKGYEVPEYGRTAKGIPIINLLGIESQEQVNAVINLSEFTDDSYLFFTTKHGVVKRTTLSQFAKIRQSGLRAVELRENDELISVQMTDGSKNMIIATKHGQSIYFPEENIRVMGRTAAGVRGIRLREDDEVIGMEVLEDDEKVLVVTEKGYGKQTPASQYPLRNRGGMGVKTVTITEKNGNLVAMKTVTGEEDLMLMTVSGVLIRFEIDTVSQTGRSAMGVKLIRLDEDEKVATVAKVPKEEDEVELEEEIDETLITQVPDESFEDAPGSDIEE”, the “soluble on expression in E. coli” value was “not soluble”. With “MNNPKAISKQTLLRLPSYLSYLKSLPKQDGEYVSATMIASALGLNDVQVRKDLACVSKKGRPKLGYVAEELIRDIESFLGYDSLNDAIIVGAGRLGGALLSYEGFKEYGLNIVAAFDIDESKIGTEICGRKIFPLDKMKELCRRMKIRIGIITVPADSAQKVCDMLVDSGIYAIWNFAPVHLKVPDNILVQQENMAASLAVLSAHLAEAIKNNGIGKGDEENDENSE” the “soluble on expression in E. coli” value was “not soluble”. For “MGSDKIHHHHHHMIRFKDIHIPKPCSVEYDTLPGDDIKRFCGSCEKYVYDFRGKDQAYLNAVFSATGKACGIYYADQIQASPALKTNRPFYSSFVSKLIATSLFLRIFLTSNNTKAHRTEPQTIVQQTTDSTELKTIHTGNDKAMYRVTVDIYKNDTLEESFLLENQNSIYLPDSIKPLDKIKVVVSTVRYNIPTSKNRTRSGKYMSNKTYYTTEQKKTYHFNFAGCNKIIIKIRHTKFIHIFLKKRTAIMGLVCPSDFW”, the “soluble on expression in E. coli” value was “not soluble”. In the case of “MSLVSSLSFNFAPDFRPLAARMRPRTIAEYIGQAHLLGEGQPLRQALEAGRAHSMMLWGPPGTGKTTLAELIAHYSNAHVERISAVTSGVKDIRGAIEQAQAIAQSRGQRTLLFVDEVHRFNKSQQDAFLPFIEDGTVIFIGATTENPSFEINNALLSRARVYLIKRLSQDEIVHIITQALADTERGLGQRALNMPTDVLNKLAQLCDGDARKALNLLELMSDMVADGGTFTTEMLVQVAGHQVAGFDKNGDQFYDLISAVHKSIRGSAPDAALYWFCRILEGGGDPLYVARRLLAIASEDVGNADPAAMTIALNAWECFHRVGPAEGERAIAQAIVYLASAPKSNAVYTAFKAARALARETGQEAVPYHLRNAPTKLMAEMGFGAEYRYAHDEPNAYASGENYFPESLKESQFYFPTERGFEKRIKDKLVQLAQLDQASGRKREGHHHHHH”, the “soluble on expression in E. coli” value is reported as “soluble”. With “MPKIAEIEGTPNPNALKFVLKEPLTWGVAKSYDHAEQAVDDPLAAALFDIDHVTNVFYVDRWITITQDGGADWQDLAREVADPIRAAPAATDQSAAVVAAASRTLADLSEEDQQRLERINILLDEEVRPFLQHDGGDLHVLALEGNILRIHYQGACGTCPSSISGTLRGIEQLLRTIEPDIRVVSA” the “soluble on expression in E. coli” value was “not soluble”. In the case of “MRKGNTDLLLFFNGWGMDRRVADWLVSAWPDSAGRDIAVLYDYRNLSIPAWLGEVMAEARAVDLVAWSLGVWAAVNSELEKIDRAVAINGTATPLDAERGIPPEIFAGTLKSWNDANRKRFERRMTGGVPPKIVDATRSDRTSADQQAELLSLGEAVARFPAESTASWKFSKALIGGRDLIFSAENQRRAWSEAGVRVAEIAAMPHFPFTHIAGWGELFT”, the “soluble on expression in E. coli” value is reported as “not soluble”.

Reference: the DeepSol protein solubility set
